Test results taken from article doi:10.1101/2025.09.04.674340.

Experiments:
[1] = molecular target: WIN332 Env SOSIP trimer (HIV-1 strain BG505); assay: cryo-EM structure
[2] = molecular target: RC1 Env SOSIP trimer (HIV-1 strain BG505); assay: cryo-EM structure

B1: Ab1983 Fab (Fab, V domains shown)
VH: QLQLQESGPGLVKPSETLSLTCAVSGGSISSDYYYWSWIRQPPGKGLEWIGGIYSISESTNYNPSLKSRVTISKDTSKNQFSLKLSSVTAADTAVYFCARKDPYSSGWTPDYWGQGVLVTVSS
VL: QSVLTQPSSASASLGASVTLTCTLSSGYSNYAVDWHQQRPGKGPQFVMRVGTGGIVGSKGDGIPDRFSGSGSGLNRYLTIKNIQEEDESDYHCGADHGTGSSFVWVFGGGTRLTVL
- stoichiometry N (Fab per Env trimer) [1]: 2

B2: Ab1999 Fab (Fab, V domains shown)
VH: QVQLQESGPGLVKPSETLSLTCAVSGGSISDDYSWSWIRQPPGKGLEWIGYIYGSGGGTNYNPSLKNRVTISIDTSKNQFSLKLSSVTAADTAVYYCARIFAFITVFGVVTPEDNWFDVWGPGVLVTVSS
VL: DIQMTQSPSSLSASVGDRVTITCRASQSINNYLHWYQQRAGEAPKLLIYAASALQTGVPSRFSGSGSGTDFTLTISSLQPEDVATYYCQHSYGTPYSFGQGTKVEIK
- stoichiometry N (Fab per Env trimer) [2]: 1
